Data: US11013692B2, “Method of drug formulation based on increasing the affinity of crystalline microparticle surfaces for active agents” (MannKind Corporation, priority 2005, dated 2021)
Where no end group is shown, it is not given here.

Key:
[1] = Ultrasonic glacial acetic acid titration of FDKP particles + insulin; type: physicochemical; conditions: 10 mg/mL FDKP, 1 mg/mL insulin; reduced interaction below about pH 2.9
Procedure: This suspension was introduced into an ultrasonic spectrometer. While stirring gently, glacial acetic acid was gradually added in 5 μL aliquots to lower the pH. At each step in the titration ultrasonic data was collected.
The change in ultrasonic velocity was related (proportional) to the amount of surface area (hydration water) of the particles and/or macromolecules in the sample. […] This additional surface area was from free insulin in the suspension.

[2] = Resuspension of dried active agent-coated FDKP microparticles in acid solution or water (filtration, HPLC); type: physicochemical; conditions: for Resuspended in Acidic solution, integrated HPLC peak area / Resuspended in water, integrated HPLC peak area: filtrate; for Resuspended in Acidic solution, integrated HPLC peak area / Redissolved after filtering away acidic solution, integrated HPLC peak area: final pH about 2.0, 215 nm; for Resuspended in water, integrated HPLC peak area / Redissolved after filtering away water, integrated HPLC peak area: final pH about 4.5, 215 nm; for Redissolved after filtering away acidic solution, integrated HPLC peak area / Redissolved after filtering away water, integrated HPLC peak area: retained particles dissolved; for Active Agent Standard solution, integrated HPLC peak area: 215 nm
Procedure: The solvent was filtered from these suspensions and the retained particles were dissolved and collected. The amount of active agent in all of these samples was quantitated by HPLC.
For each of the lots, the active agent was released from the particles in the acidic solution. Therefore, by protonating the surfaces of the microcrystals, the active agent desorbs from the crystal surfaces.

[3] = Insulin binding to FDKP particles at different pH (unbound insulin in supernatant by HPLC); type: physicochemical
[4] = pH dependence of adsorption onto FDKP microparticles with excess protein (retentate mass ratio by HPLC); type: physicochemical; conditions: for type of monolayer formed: 5 mg/mL FDKP, 2 mg/mL protein
Procedure: (An excess of protein, as referred to herein, is that amount over what is believed to be necessary to form a monolayer covering the accessible surface of the FDKP microparticle). After incubation, non-adsorbed protein was removed by filtration. The solids retained on the filter (retentate) were dissolved and the amounts of FDKP microparticles and protein retained on the filter were quantitated by HPLC. The protein/particle mass ratio was determined from this quantitation.
Insulin was adsorbed (loaded) onto FDKP microparticles in a pH-controlled process by mixing an aqueous suspension of FDKP microparticles with an aqueous solution of insulin. […] The solid particles with adsorbed insulin were recovered from the filter (retentate), dissolved and collected. The amounts of insulin and dissolved FDKP microparticles were quantitated by HPLC. The amount of adsorbed insulin was calculated as a fraction of the total mass of retentate.

[5] = Adsorption onto FDKP microparticles at pH 5.0 with increasing salt (sodium chloride); type: physicochemical; conditions: pH 5.0, 5 mg/mL FDKP microparticles, sodium chloride (FIGS. 8A-8D)
Procedure: Each sample contained a different quantity of salt (sodium chloride), as indicated under each bar in FIGS. 8A-8D (units are mM). […] After a brief incubation, unbound active agent was removed by filtration and the particles with adsorbed active agent were redissolved. The amount of active agent and particle recovered was quantitated by HPLC, and expressed as a mass ratio (% loading).
This can be interpreted as evidence that the salt competed with the active agent for interaction with the particle surface. As the salt concentration was increased, it competed strongly and effectively for surface binding sites, and essentially displaced the active agent from the particle surfaces. It is also speculated, that decrease binding of the active agent to microparticle may be attributable to Debye shielding.

[6] = Saturation curves for adsorption of active agent onto FDKP microparticles at pH 5.0; type: physicochemical; conditions: pH 5.0, constant 5 mg/mL FDKP microparticles (FIGS. 7A-7D)
Procedure: When the hydration water is displaced by adsorption of the active agent, its structure relaxes and produces a net decrease in the ultrasonic velocity through the sample. […] These studies were conducted at pH 5.0 where optimal adsorption of the active agent to microparticles is observed.

[7] = at the concentrations used; cited from earlier work

Row | Substance | Resuspended in Acidic solution, integrated HPLC peak area [2] | Resuspended in water, integrated HPLC peak area [2] | Redissolved after filtering away acidic solution, integrated HPLC peak area [2] | Redissolved after filtering away water, integrated HPLC peak area [2] | Active Agent Standard solution, integrated HPLC peak area [2] | effect of increasing ionic strength on adsorption [5] | adsorption as active agent concentration is increased [6] | other results
1 | insulin: protein active agent adsorbed onto FDKP microparticles | 980 mAU * sec | 4 mAU * sec | 49 mAU * sec | 936 mAU * sec | 1103 mAU * sec | – | – | pH of association of protein with FDKP microparticles [1]: greater than 2.9; pH at which substantially complete binding is achieved ([3]; insulin on FDKP particles): ≥ 4.2; insulin adsorbed from solution onto the particles ([3]; pH 3.6): approximately 75%; pH dependence of adsorption ([4]; 5 mg/mL FDKP particles at varying pH, excess active agent (FIGS. 4A-D)): increased as a function of pH; type of monolayer formed ([4]; pH 3.5 through pH 4.5): non-continuous monolayers; type of monolayer formed ([4]; pH 5.0): continuous monolayer
2 | PTH: parathyroid hormone | – | – | – | – | – | reduced the extent of adsorption | reached saturation | –
3 | ghrelin: ghrelin, active agent adsorbed onto FDKP microparticles (GSSFLSPEHQRVQQRKESKKPPAKLQPR; ends and bridges not checked; UniProt Q9UBU3 24-51, looked up) | – | – | – | – | – | reduced the extent of adsorption | – | –
4 | Insulin Aspart: a fast-acting type of insulin | 893 mAU * sec | 0 mAU * sec | 29 mAU * sec | 982 mAU * sec | 1099 mAU * sec | – | – | –
5 | GLP-1: glucagon-like peptide 1 | – | – | – | – | – | – | reached saturation | self association [7]: does not self associate
